Source: patent EP4613859A1, “TLR SIGNALING INHIBITORY PEPTIDE AND COMPOSITION INCLUDING SAME FOR PREVENTION OR TREATMENT OF INFLAMMATORY DISEASES” (Korea Institute of Science and Technology, priority 2022, dated 2025)

Experiments:
human MAL (human) [1] = molecular target: human MAL (human) (UniProt P58753); assay: P8 phage display panning on plate-immobilised MAL, after round 4, NGS
human MyD88 (human) [2] = molecular target: human MyD88 (human) (UniProt Q99836); assay: P8 phage display panning on plate-immobilised MyD88, after round 4, NGS
human MyD88 (human) [3] = molecular target: human MyD88 (human) (UniProt Q99836); assay: P3 phage display panning on plate-immobilised MyD88, after round 4, NGS
human MAL (human) [4] = molecular target: human MAL (human) (UniProt P58753); assay: P3 phage display panning on plate-immobilised MAL, after round 4, NGS

UniProt P58753, sequence (P58753 79-221 limits assumed): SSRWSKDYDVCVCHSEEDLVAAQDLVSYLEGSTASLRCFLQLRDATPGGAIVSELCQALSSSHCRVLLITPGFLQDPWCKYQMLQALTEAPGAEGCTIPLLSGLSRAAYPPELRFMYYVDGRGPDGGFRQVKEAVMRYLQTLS
UniProt Q99836, sequence (Q99836 155-296 limits assumed): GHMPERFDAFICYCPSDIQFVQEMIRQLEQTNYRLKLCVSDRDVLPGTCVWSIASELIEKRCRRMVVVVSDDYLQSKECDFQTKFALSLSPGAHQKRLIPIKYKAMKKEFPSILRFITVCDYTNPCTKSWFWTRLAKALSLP

| Binder | NGS count (human MAL (human) [1]) | Population (human MAL (human) [1]) | NGS count (human MyD88 (human) [2]) | Population (human MyD88 (human) [2]) | NGS count (human MyD88 (human) [3]) | Population (human MyD88 (human) [3]) | NGS count (human MAL (human) [4]) | Population (human MAL (human) [4]) |
| --- | --- | --- | --- | --- | --- | --- | --- | --- |
| AFLYTFLINLTHPTNF | 51100 count | 18.9% | – | – | – | – | – | – |
| KLFWEKFKEFFLPSLSR | 4890 count | 1.51% | – | – | – | – | – | – |
| AWALHQLQQIINWHET | 232 count | 0.07% | – | – | – | – | – | – |
| QLIQQWIELHLHQLHL | 9390 count | 2.9% | 1600 count | 0.62% | – | – | – | – |
| AFFWAQLKSVLGNPTM | 28800 count | 8.9% | – | – | – | – | – | – |
| DTKLKKGESIAPELLR | 5620 count | 1.74% | – | – | 2460 count | 0.72% | – | – |
| WFYERLVSLILRDTKV | 79000 count | 24.4% | – | – | – | – | – | – |
| HFFWIQLKSILGETSF | 3620 count | 1.12% | – | – | – | – | – | – |
| KLIQGWFLYRLLKIEQ | 2070 count | 0.64% | – | – | – | – | – | – |
| YFLHFLLFSRPETEYI | 17200 count | 5.31% | – | – | – | – | – | – |
| NQWRNALTAAANLSGW | 848 count | 0.26% | – | – | 28700 count | 8.35% | 25800 count | 9.71% |
| KFIWDIINAISSQIRV | 146 count | 0.05% | – | – | – | – | – | – |
| LKVESWRQALEKAGKL | – | – | – | – | 16800 count | 4.91% | 5180 count | 2.32% |
| DFLNWFIALKSTVIEN | 867 count | 0.27% | – | – | – | – | – | – |
| WALQELVKILQAKIFL | 227 count | 0.07% | – | – | – | – | – | – |
| EWIREQLRPALKERLP | – | – | – | – | 16800 count | 4.9% | 2350 count | 0.88% |
| KNLFNELVSKNIRTFM | – | – | – | – | 8540 count | 2.49% | 3260 count | 1.22% |
| LKWGDPYFWSKLRYAM | – | – | – | – | 8310 count | 2.42% | 5130 count | 1.93% |

| Binder | NGS count (human MAL (human) [1]) | Population (human MAL (human) [1]) | NGS count (human MyD88 (human) [2]) | Population (human MyD88 (human) [2]) | NGS count (human MyD88 (human) [3]) | Population (human MyD88 (human) [3]) | NGS count (human MAL (human) [4]) | Population (human MAL (human) [4]) |
| --- | --- | --- | --- | --- | --- | --- | --- | --- |
| RNFVAYLFQALANKGI | 28000 count | 8.63% | – | – | – | – | – | – |
| KEVEGWRDALTKVASL | – | – | – | – | 5190 count | 1.8% | 3760 count | 1.41% |
| WFMMKFRTVLDHVNDV | 2270 count | 0.7% | – | – | – | – | – | – |
| YLISYIFNELARAGFS | 295 count | 0.09% | – | – | – | – | – | – |
| SEFIQKIILWMNPKIV | 4460 count | 1.38% | – | – | – | – | – | – |
| YAFTGHLHRYLVQRGV | – | – | – | – | 13400 count | 3.91% | 43800 count | 16.4% |
| TFLGHLYNALVQAGIH | 24700 count | 7.64% | – | – | – | – | – | – |
| WFLFTVRSAIYAMSPA | 3160 count | 0.97% | – | – | – | – | – | – |
| RNNFIGHLYQALYRIG | 3120 count | 0.96% | – | – | – | – | – | – |
| YLKWGYPWFWDRLRFA | 517 count | 0.19% | – | – | 7320 count | 2.13% | 1680 count | 0.63% |
| YNFISHLYDALHRNRI | – | – | – | – | 2890 count | 0.84% | 2680 count | 1.01% |
| AFFWEQLRTVLGKPTM | 11800 count | 3.65% | – | – | – | – | – | – |
| WFLTAFRMAMDQVADT | 353 count | 0.11% | – | – | – | – | – | – |
| FTLAVHVRNWLVGGFI | 520 count | 0.19% | – | – | – | – | – | – |
| ESILNQLRRSSQSIAN | – | – | – | – | 1980 count | 0.58% | 3680 count | 1.38% |
| LFFWESLKQLLRSDGR | 22600 count | 5.97% | – | – | – | – | – | – |
| SLLYDHLRWLGIRAFL | 2580 count | 0.8% | – | – | – | – | – | – |
